We go through seven molecules from PMC6092398, “Revealing circadian mechanisms of integration and resilience by visualizing clock proteins working in real time” (Nature Communications, 2018).

Data set [1] deals with KaiA (UniProt Q79PF6). As to the kind of experiment: HS-AFM single-molecule dwell time.
Data set [2] deals with KaiA (UniProt Q79PF6). Put plainly: HS-AFM single-molecule dwell time. The source holds these as a separate data set.
The target of data set [3] is T1, KaiC-AE (mimic of S/pT) (S. elongatus, UniProt Q79PF4 1-519, KaiC-AE (S431 to A) | KaiC-AE (T432 to E)).
T1 construct: KaiC of Synechococcus elongatus with the two phosphorylation sites S431 and T432 changed to A and E; the two substitutions are read from these; source: E. coli BL21 or DH5α, pGEX-based construct, purified (glutathione-agarose, HRV3C cleavage on the column, Q Sepharose); not shown: GST, N-terminal, cleaved
T1 sequence: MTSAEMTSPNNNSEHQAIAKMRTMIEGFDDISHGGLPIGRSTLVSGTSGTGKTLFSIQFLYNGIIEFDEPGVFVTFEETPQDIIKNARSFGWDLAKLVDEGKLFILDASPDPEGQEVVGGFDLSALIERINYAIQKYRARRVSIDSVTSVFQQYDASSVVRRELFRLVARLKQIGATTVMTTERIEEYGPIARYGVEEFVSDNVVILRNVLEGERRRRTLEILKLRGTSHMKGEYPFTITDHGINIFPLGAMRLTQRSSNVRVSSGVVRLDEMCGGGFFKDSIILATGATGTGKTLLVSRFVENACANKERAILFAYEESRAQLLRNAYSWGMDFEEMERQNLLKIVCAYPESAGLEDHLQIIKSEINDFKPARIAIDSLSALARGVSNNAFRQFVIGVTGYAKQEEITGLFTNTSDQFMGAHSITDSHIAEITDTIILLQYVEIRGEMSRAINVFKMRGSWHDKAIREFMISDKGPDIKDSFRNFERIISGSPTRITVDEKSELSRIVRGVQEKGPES
Put plainly: high-speed atomic force microscopy (HS-AFM); KaiC phospho-mimics on AP-mica (CII end up), 1 μM KaiA in solution, no ATP; dwell time of the KaiA-bound state from images at 10 fps, fitted to a first order model; 20 mM Tris-HCl pH 8.0, 5 mM MgCl2, 25-28 °C. The note with it: both partners purified.

Data set [4] has as its target T2, KaiC-DE (mimic of pS/pT) (S. elongatus, UniProt Q79PF4 1-519, KaiC-DE (S431 to D) | KaiC-DE (T432 to E)).
T2 construct: KaiC of Synechococcus elongatus with the two phosphorylation sites S431 and T432 changed to D and E; the two substitutions are read from these; source: E. coli BL21 or DH5α, pGEX-based construct, purified (glutathione-agarose, HRV3C cleavage on the column, Q Sepharose); not shown: GST, N-terminal, cleaved
T2 sequence: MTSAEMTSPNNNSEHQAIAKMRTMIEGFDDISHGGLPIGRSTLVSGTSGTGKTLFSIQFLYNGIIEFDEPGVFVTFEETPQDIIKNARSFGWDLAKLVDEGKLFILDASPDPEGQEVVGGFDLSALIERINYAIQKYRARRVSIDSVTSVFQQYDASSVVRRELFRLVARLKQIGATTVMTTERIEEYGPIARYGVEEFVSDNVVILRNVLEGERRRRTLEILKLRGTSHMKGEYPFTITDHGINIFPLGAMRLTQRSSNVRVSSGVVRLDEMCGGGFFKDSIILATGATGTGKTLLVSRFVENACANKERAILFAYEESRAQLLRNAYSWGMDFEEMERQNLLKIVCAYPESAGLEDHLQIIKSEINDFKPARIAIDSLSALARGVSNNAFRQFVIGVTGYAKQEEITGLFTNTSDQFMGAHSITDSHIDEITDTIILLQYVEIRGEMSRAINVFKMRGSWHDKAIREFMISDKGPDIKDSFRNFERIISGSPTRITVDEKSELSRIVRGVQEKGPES
The data set is described as above. The settings on record: both partners purified.

In a further data set the target is T3, KaiC-DA (mimic of pS/T) (S. elongatus, UniProt Q79PF4 1-519, KaiC-DA (S431 to D) | KaiC-DA (T432 to A)).
T3 construct: KaiC of Synechococcus elongatus with the two phosphorylation sites S431 and T432 changed to D and A; the two substitutions are read from these; source: E. coli BL21 or DH5α, pGEX-based construct, purified (glutathione-agarose, HRV3C cleavage on the column, Q Sepharose); not shown: GST, N-terminal, cleaved
T3 sequence: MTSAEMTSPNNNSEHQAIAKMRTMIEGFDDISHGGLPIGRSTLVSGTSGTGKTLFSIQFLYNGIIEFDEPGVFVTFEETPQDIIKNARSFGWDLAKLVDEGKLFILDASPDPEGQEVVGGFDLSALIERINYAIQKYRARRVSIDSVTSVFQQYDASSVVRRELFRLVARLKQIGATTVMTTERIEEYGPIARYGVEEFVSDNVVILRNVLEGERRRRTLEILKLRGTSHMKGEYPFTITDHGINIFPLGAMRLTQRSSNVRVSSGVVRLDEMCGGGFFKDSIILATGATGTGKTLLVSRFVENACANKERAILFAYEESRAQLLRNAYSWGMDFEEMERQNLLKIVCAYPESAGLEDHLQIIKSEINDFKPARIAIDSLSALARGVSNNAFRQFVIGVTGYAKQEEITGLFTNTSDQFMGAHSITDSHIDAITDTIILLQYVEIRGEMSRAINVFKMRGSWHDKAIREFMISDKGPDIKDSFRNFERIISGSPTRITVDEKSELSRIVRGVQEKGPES
Described as above. The note with it: both partners purified.

In data set [5] the target is T1, KaiC-AE (mimic of S/pT). As to the kind of experiment: high-speed atomic force microscopy (HS-AFM); as Fig. 3 but with 1 mM ATP in the observation buffer (Supplementary Fig. 4); KaiC phospho-mimics on AP-mica, KaiA in solution. The settings on record: both partners purified.
Data set [6] deals with T2, KaiC-DE (mimic of pS/pT). Described as above. The settings on record: both partners purified.
The target in another data set is T4, KaiC-AA (mimic of S/T) (S. elongatus, UniProt Q79PF4 1-519, KaiC-AA (S431 to A) | KaiC-AA (T432 to A)).
T4 construct: KaiC of Synechococcus elongatus with the two phosphorylation sites S431 and T432 changed to A and A; the two substitutions are read from these; source: E. coli BL21 or DH5α, pGEX-based construct, purified (glutathione-agarose, HRV3C cleavage on the column, Q Sepharose); not shown: GST, N-terminal, cleaved
T4 sequence: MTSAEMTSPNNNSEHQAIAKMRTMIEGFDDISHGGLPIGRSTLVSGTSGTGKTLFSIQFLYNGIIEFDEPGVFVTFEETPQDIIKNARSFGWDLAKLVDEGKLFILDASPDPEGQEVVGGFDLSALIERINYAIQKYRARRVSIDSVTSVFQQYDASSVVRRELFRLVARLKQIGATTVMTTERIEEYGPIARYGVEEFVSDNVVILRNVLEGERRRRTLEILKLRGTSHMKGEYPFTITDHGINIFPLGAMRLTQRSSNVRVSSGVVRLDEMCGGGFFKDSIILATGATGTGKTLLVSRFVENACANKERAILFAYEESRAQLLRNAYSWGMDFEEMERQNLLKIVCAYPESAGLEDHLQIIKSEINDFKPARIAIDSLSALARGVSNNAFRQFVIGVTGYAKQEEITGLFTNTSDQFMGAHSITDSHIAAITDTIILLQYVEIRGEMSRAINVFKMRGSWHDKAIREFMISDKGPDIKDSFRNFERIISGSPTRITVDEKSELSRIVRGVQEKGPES
The description is as above. The note with it: both partners purified.

Data set [7] concerns the molecule itself. As to the kind of experiment: high-speed atomic force microscopy (HS-AFM); KaiC^WT alone immobilised on bare mica (N-terminal side seen), images compared with an AFM image simulated from the crystal structure.
Setting [8] is: reference: KaiC-AA (S431A/T432A), sites T432.
Where [9] appears, read: reference: KaiC-AA (S431A/T432A), sites S431.
[10] abbreviates: reference: KaiC-AA (S431A/T432A), sites S431,T432.
[11] abbreviates: reference: KaiC-AE (S431A/T432E), sites S431.

Take “KaiC (from UniProt Q79PF4) KaiC-AE (S431A/T432E)”: the other: bound-state lifetime τbound with KaiA [1] (setting [8]) worked out at 0.95 s; with KaiA [2] (setting [8]) it was 1 s.
In the case of “KaiC (from UniProt Q79PF4) KaiC-DA (S431D/T432A)”, the other: bound-state lifetime τbound with KaiA [1] (setting [9]) and with KaiA [2] (setting [9]) was 0.43 s each time.
Regarding “KaiC (from UniProt Q79PF4) KaiC-DE (S431D/T432E)”, the other: bound-state lifetime τbound with KaiA [1] (setting [10]) was 0.31 s; with KaiA [1] (setting [11]), “weaker; reference 0.95 ± 0.04”; with KaiA [1] (reference: KaiC-DA (S431D/T432A), sites T432), “weaker; reference 0.43 ± 0.01”; with KaiA [2] (setting [10]), 0.26 s; with KaiA [2] (setting [11]) it was “weaker; reference 1.00 ± 0.15”.
For the molecule “KaiC (from UniProt Q79PF4) KaiCWT from peak phosphorylation phase (24 h)”, the “other: bound-state lifetime τbound” value with KaiA [2] (reference: KaiCWT from trough phosphorylation phase (15 h), sites S431,T432) is “weaker; reference 0.77 ± 0.05”.
As to “KaiC (from UniProt Q79PF4) hyperphosphorylated KaiCWT (~81% phosphorylated)”, the “other: bound-state lifetime τbound” value with KaiA [2] (reference: hypo-phosphorylated KaiCWT (~27% phosphorylated), sites S431,T432) is recorded as “weaker; reference 1.12 ± 0.03”.

B1: KaiA (natural protein, S. elongatus, UniProt Q79PF6 1-284, looked up)
chain: MLSQIAICIWVESTAILQDCQRALSADRYQLQVCESGEMLLEYAQTHRDQIDCLILVAANPSFRAVVQQLCFEGVVVPAIVVGDRDSEDPDEPAKEQLYHSAELHLGIHQLEQLPYQVDAALAEFLRLAPVETMADHIMLMGANHDPELSSQQRDLAQRLQERLGYLGVYYKRDPDRFLRNLPAYESQKLHQAMQTSYREIVLSYFSPNSNLNQSIDNFVNMAFFADVPVTKVVEIHMELMDEFAKKLRVEGRSEDILLDYRLTLIDVIAHLCEMYRRSIPRET
notes: circadian clock protein KaiA of Synechococcus elongatus, native (unmutated); also called native KaiA; KaiA dimer; source: E. coli BL21 or DH5α, pGEX-based construct, purified (glutathione-agarose, HRV3C cleavage on the column, Q Sepharose); not shown: GST, N-terminal, cleaved
With B1, the “τ_(bound) (dwell time of the bound state)” value with KaiC-AE (mimic of S/pT) [3] is 1 s; in the data set with KaiC-DE (mimic of pS/pT) [4] it was 0.26 s; in the data set with KaiC-DA (mimic of pS/T), 0.43 s; with KaiC-AE (mimic of S/pT) [5], 0.95 s; in the data set with KaiC-DE (mimic of pS/pT) [6], 0.31 s. For the same molecule, the binding result with KaiC-AA (mimic of S/T) was “binds”.

B2: native wild-type KaiC hexamer (KaiC^WT) (natural protein, S. elongatus)
chain: MTSAEMTSPNNNSEHQAIAKMRTMIEGFDDISHGGLPIGRSTLVSGTSGTGKTLFSIQFLYNGIIEFDEPGVFVTFEETPQDIIKNARSFGWDLAKLVDEGKLFILDASPDPEGQEVVGGFDLSALIERINYAIQKYRARRVSIDSVTSVFQQYDASSVVRRELFRLVARLKQIGATTVMTTERIEEYGPIARYGVEEFVSDNVVILRNVLEGERRRRTLEILKLRGTSHMKGEYPFTITDHGINIFPLGAMRLTQRSSNVRVSSGVVRLDEMCGGGFFKDSIILATGATGTGKTLLVSRFVENACANKERAILFAYEESRAQLLRNAYSWGMDFEEMERQNLLKIVCAYPESAGLEDHLQIIKSEINDFKPARIAIDSLSALARGVSNNAFRQFVIGVTGYAKQEEITGLFTNTSDQFMGAHSITDSHISTITDTIILLQYVEIRGEMSRAINVFKMRGSWHDKAIREFMISDKGPDIKDSFRNFERIISGSPTRITVDEKSELSRIVRGVQEKGPES
notes: circadian clock protein KaiC of Synechococcus elongatus, native (unmutated); also called native KaiC; C6; source: E. coli BL21 or DH5α, pGEX-based construct, purified (glutathione-agarose, HRV3C cleavage on the column, Q Sepharose; 5 mM MgCl2 and 1 mM ATP throughout); not shown: GST, N-terminal, cleaved
On to B2, for which the “stoichiometry N” value in data set [7] was 6.
